Source: a protein production outcome set (Wang et al. 2014)

Test: label from the status in PepcDB records

Sequence	protein production
MKRKKIKNQLLVLTSILVLLSLEVAPVVTLAAELPSSSLQTALSSETTITSEEKVTETTETTVATSTTSTSSSSSESSSSTDTTTESTSQSTTETTTTNTSSETKKEPTEPTVSSEITQPVEQSQPPQVPVTKQEPEEPIQVPEANNNFVEENQAVSLNPSLKVDEIASSNLKGYELPLLSSFGEKKRAVVVAEALRHVGKTKKEFNLTEQALTSSFLAQKIYQQLFKIDIGSTPQEQMTFGKVRSIEEAEPGDLIFWQTAEGKTLQNGVYLGQGKYLIAAAESDSKEKPEVIAQLENIYTAKQQPDSKEEKRLVVTNPFKEFILTEYGKEVLATYGASFEMQKSEQTTAFIKKIGETARELGEKYDVFASVMIAQAILESGSGESQLAKEPYYNLFGVKGSFQGNSVSFSTKEADQRGQLYTISAGFRDYGGYNDSLQDYVQLLRQGIDGNQDFYKPAWRSEAKNYLQATRFLTGKYATDKQYDNKLNSLIAVYNLTQFDLPKTVDGLIIQSKNKLSEAEQQQMHFPVYDGINYNRSGSYPVGQCTWYVYNRFKQLGTSVDEFMGNGSDWGRKGRALGYQVSSLPKAGRAISFQPGVAGADNQYGHVAFVEAVTSDGIIISESNVINDQTISYRVLPNVIAYSSGVTYIGA	failed
MPSRKFADGEVVRGRWPGSSLYYEVEILSHDSTSQLYTVKYKDGTELELKENDIK	not failed
MALTEAWLIEKANRKLNAGGMYKITSDKTRNVIKKMAKEGIYLCVAQGYRSTAEQNALYAQGRTKPGAIVTNAKGGQSNHNYGVAVDLCLYTNDGKDVIWESTTSRWKKVVAAMKAEGFKWGGDWKSFKDYPHFELCDAVSGEKIPAATQNTNTNSNRYEGKVIDSAPLLPKMDFKSSPFRMYKVGTEFLVYDHNQYWYKTYINDKLYYMYKSFCDVVAKKDAKGRIKVRIKSAKDLRIPVWNNTKLNSGKIKWYAPNTKLAWYNNGKGYLELWYPSDGWYYTANYFLK	failed
MKAVIVYASVHHGNTKKIAEAMASVISADVIDVTRKIKPDLSGYDVIGFASGVYFHTFHERIKKCIEENLFSKGQKVFLVATCGLGYRDYTKGIKDILAKKHVSFIGNFQCRGWDTYGIFGKIGGIAKKHPNDRDLKEAQQFVLKTVCEKTIDDVALLG	failed
MGSSHHHHHHSSGLVPRGSPQQLVERLQEEKRIEAQKRKERQEAHLYMQVQIVAEDQFCGHQGNDMYDEEKVKYTVFKVLKNSSLAEFVQSLSQTMGFPQDQIRLWPMQARSNGTKRPAMLDNEADGNKTMIELSDNENPWTIFLET	not failed
VLASILLSQAAYESNYGSSLLSVKYHNIYSLPARPGQEHIYLKDNVYSKGKWQYQKVDFAVFRDWSSSMSSYLEELRQGRWGESTYKEVAGTTSYKVAAEKLQAAGFNSDPDYTKHLISIIETYNL	failed
MSASVKESLQLQLLEMEMLFSMFPNQGEVKLEDVNALTNIKRYLEGTREALPPKIEFVITLQIEEPKVKIDLQVTMPHSYPYLALQLFGRSSELDRHQQLLLNKGLTSYIGTFDPGELCVCAAIQWLQDNSASYFLNRKLV	not failed
MIHDLLLACRSHNPEQLGIKAFNETTVIDQFIHPCEREIFMDIIKIIKVYQEVEQFTHSSGRKSDTHGELPDSLHGYYLLNLAKGIEMALEEYYAEIGRLEKYCLGNERNSLSYVYNALYAKFPLLVFMRNLITEIHVLNLRGCVLLHNLHQQCEHGDIQLEKAIKIIMKPVKNAFFSSLAHWLLFGVIDDVHSEFFIKFTPTDAVDGSSFSKSATCSLLSAEKNPEDYIWQYEVNMSQLPGFFSIVLAEKVLFVGQTVLVFKMGRNVKVKNKTDPLAAKLAELDSDDIYQLWSGRESEFFKMVVDLSNEDTINVFRLEKVIIDIKNYVSARLSEIAVNEVDLERQMGLIKDFFLLGRGEFYLEFCSQMVGTMETYREERFKNVTRSFELAATVTGITDDLDKFSLICQRSTSEPDDTSDFNFLQGLSLKYEYEWPLNLLFSPTTIERYNNIFRFLLIIRTYQYEIQRVWAKQTWRAKSAKDVPPNNKIITLRNYLMFFLNNMQYYIQVDVLESQFGILMNVIKSRSDFEVIQRAHTVFLANVLSHCFLLNESETQLNVTGSQNRNPIYGTLLKLFGICEKFAHMTQTKDPSDDLEDEVDQLNESFGVQIASLIQLLVDVKSASCLGPLSQLLLRLDFNCWFSASHNTSA	failed
MTPPASSSPCSSSDKRNRAVPSAKALMVWRAGPDGRPLDPSQFPQDPPARRDGDGGGAEAWLNLVHPEEREAVLLLWRRALREGEEFEARYRLHRGLSGYRWALGQGRPLRGDDGEVREWIGTVVDIHDHMEAERTIALSEERLRLALDSADLGVWECTIATNQWWFSEAALRILGCPPDAETSIETVMGAIHSDDLDGLRARWHAARTGRARDRMEGEFRIQRGGGRLGWIACSARLVADDGKAVTRMLGTLRDITKTRLQREKLYHLAHFDPLTGLPNRHEMITRTQATLASGGAAGGAGAILLLDLDGFKEANDTLGQATGDALLKRIAHRLVSSLPADSLIGRVGGDEFLVVVPGVAEQWTATRIADGLYDVLTVPFVIGDRRIPLSGRIGIALAPRDGTSAQDLMTHAELALQETKTISGCVTRFFSPRLHDEARERQDMGLELRRATDNGEFELFYQPQIRLSDRAVVGAEALLRWRHPTRGVMPPAAFLHVLKRGPLAGEVGEWVVAKACADAAGLLNAGSRIRMAVNLFSAQFKAGTVDATVRRSLLESGLPAELLELEITEKVTLDRDEGILTCLKGLRDLGCGVAFDDYGTGYASLSMLKRYPLTRLKIDRAFVQHLAESPKDGAIVRAVLSLGNTFGLSVTAEGIEEEEQEKLLLGQGCDEGQGYFFGRPMPLADFIQFLARVKKNPGEFPTPA	failed
MSSPLVLPSDGHYWLKNAHIPPNLVKTKVNFPENFQFPRPWEDLGLYHLEIADGKIKNIVAVGQGEESDLVTDDGVPRVDLSKRMILPCFVDMHTHLDKGHIWGRSPNVDGTFSGAIASTERDAELHHSPEDIYRRMEFALQCSYAHGTAAVRTHIEMAGQKSQIAWQTFQQLRQAWADRLTLQGVAMVTTDYYLGSAGEKLADQMAHGGGILGGVAYAGPQVEAQLTRLMTLAQARNLAIDLHVDENGDRRSRVLHQVAAIALKVGFTGQIVCGHCCSLDVQSPQQVQQTLALVKQANIAIISLPLCNLYLQGRHQPQKPAWRGITKVHAIHAEGIPLVFASDNCRDPFFPFGDHDGLEILNQSVRIGQLDPPYGHWCATVNQTPAQLMGLADYGRLAVNGPADLVIFPARYFSEIFSRPQGDRLVIRKGKPTHKKTPHYQELDDLMGA	failed
APLYIKVHEIDNTAIIVNDGGLPKGTVFSCGLVLEEDVPQGHKVALTDLNQGDEIVRYGEVIGFADETIKRGSWIREALVRMPAP	not failed
MINLWKNGYDMVYGIRNRTTESWLKRVLTQAYYRILNLSSPIDIPESAGDFRLLDAKVVEAIKQLPEKNRYMKGLYAWVGFKSIGINFSEQERQHGHSSFNLKSLFNLAMSGLTGFSDLPLRVCIYLGAILALGAMSYGVWIIIKTLIEGISIPGWATLAAGMTLLGGIQLLFIGILGEYIGRIYAEVKNRPKYIISTEHSRTKQEHSIAHQENTFSSF	failed
MSSVSLQDFDAERIGLFHEDIKRKFDELKSKNLKLDLTRGKPSSEQLDFADELLALPGKGDFKAADGTDVRNYGGLDGIVDIRQIWADLLGVPVEQVLAGDASSLNIMFDVISWSYIFGNNDSVQPWSKEETVKWICPVPGYDRHFSITERFGFEMISVPMNEDGPDMDAVEELVKNPQVKGMWVVPVFSNPTGFTVTEDVAKRLSAMETAAPDFRVVWDNAYAVHTLTDEFPEVIDIVGLGEAAGNPNRFWAFTSTSKITLAGAGVSFFLTSAENRKWYTGHAGIRGIGPNKVNQLAHARYFGDAEGVRAVMRKHAASLAPKFNKVLEILDSRLAEYGVAQWTVPAGGYFISLDVVPGTASRVAELAKEAGIALTGAGSSYPLRQDPENKNLRLAPSLPPVEELEVAMDGVATCVLLAAAEHYAN	not failed
MTEGRVIDVDVSSEMESSFLEYAVSVIHSRALPDARDGLKPVQRRIVYQMGDMGLRPERGHVKSSRIVGDVMGKLHPHGDTAIYDALVRLSQSFIMRVPLVDGHGNFGSLDDGPAAPRYTEARLTSASMQMIAGLDEDVVDFVGNYDNTLTQPEVLPSAFPNLLINGTSGIAVGMATNMAPHNPGEVIAACCHLIRNPEAGLAELMRFIPGPDLPTGGRIIGLDGVREAYETGRGTFRTRATVSIENINARRKGIVVTELPYLVGPEKVVSKVKDAVGAKKLTGIASIDDYSDRKNGMRLVIGIKNGFNPEAVLAELYRQTPLEESFSMNNVCLVDGQPRTLGLRELLTVYLAHRIDVIRRRTVFQLRKAKDRLHLVEGLLIAILDIDEVIQLIRSSDDAATARTRLMDVFELSELQATYILDLQLRRLTKFSRIELEAERDELRKKIAYLEDLLADEAKLRELVATELEATAEAIGSPRRTVLIEGSMKELSAKGKKAQADLKIADAPCRVLLSTSGRIARTADASPLQRVGKRSSHDALRSEIVSTTQGKVGAVTSTGRLHMVDVVDLPALPPAATRPNVAGGVKIADYVTLEKNETVLGLIDLDREFVLGTAGGVVKRVSVAARPNKSEWEAITLKGKDSVIGVAQPKDIDESLAVFVTSNAQLLAFDASGLRAQGWNASGVAGMKVAADARALFFGMTPKAAKTDEEGDADTNIGTFAVVTVASGENFYGAPSSSIKVSDFSEYPTKGRATSGVRAHKFLKGETELSLAWVGDSPQAAAQAGGARTLPAEMSRRDATGSPLESKIDVIGTVPRLGDAEAALSGGGAGAGDSGAAGTDASGDGGAASGGGSSSSAATRTQGLATNFGELDLDLDGGPDLDEAKEEIARSKIDSDDAVIVSHDDDDDDDTALF	failed
MKRSILNTLLNVLAIIFIVFLMIKVSVPMGSILLLSFIIFKLTINKHLIYMFKGAKKLRANNLEEALSLYRKAALCNSSNVKAIKTYVFLELKIGSYTEALETLKSIVSKRKFLPEDANQLDLLQAILYWKLNDIKTSLQILDDLKANNFNSLDFYEVYGYVLIQDEDFEKAISISNEGLKVDELSQIIRANLGEIFYKIGDIKKACFYFDELIDECVNFSEPYYFMGIISKEKEDFYKAKEFLNKALKYDESILSNLSKNDIENALISINH	failed
MSLDSKTAPAFSLPDLHGKTVSNADLQGKVTLINFWFPSCPGCVSEMPKIIKTANDYKNKNFQVLAVAQPIDPIESVRQYVKDYGLPFTVMYDADKAVGQAFGTQVYPTSVLIGKKGEILKTYVGEPDFGKLYQEIDTAWRNSDAEGHHHHHH	not failed
MGKPVTNEAKGVYVMSVLPNMPAAGRLEAGDRIAAIDGQPINTSEQIVSYVREKQAGDRVRVTFIRDRKQHEAELVLKPFPHHPNQIGLGVTLRTLEHHHHHH	not failed
MLNVIHALFFRELKTRFGKNRYLGYIWVVGEPMSVVLLVTIIGTVIREYHHQVMPEGISIFMFLISGIMPFFMFRSIVTQLMNGIGANLSLFAYKPVKPIHVFIARTLLEFCIYFVIFITVLFFAGWFFRLDVFPVHLLGVLFCIFLLICSAFALGICFAIVWHFVESLRTLLAYFSIVFYWSSGIIFPTWLTPRPLLDIFYYNPLLHIFELLRFNFFENYPLQDEYSYFYAIFWILLVLFIGLFIYYYNRQALTAAKKE	failed
MKIAIFGTTLHAGVMAALLAERGNDVFWCADHDYKGLEEQIVCQTYQEQDVNRLLVKQRQLGFLKDCRFSSIPLDIEAYLFCFSPTELQFALEVTQLLNIRPIIHPRLMINGSTFGLHGTEKLKQNLPKDHWVYFPDMIQEGNAINSVLTVKHVIVGVESDYTKTIMHEMLRPFFRFNHQYLFMPILDAEFTKLSISGMLATRISYMNDMALVAEKLGIDIANVKEGMAADTRIGSAYLSAGVGFGGENFSHDILTLSNVVSDTGARSRLLEQVWEINEQQKEVLFRKLWNYYHCDLKDKVVAIWGAAFKENTSNIHNAPIHSMLTALWAQGAIVKLHDPQALEEIQARYGKRNDLILCTEQYEATRGAHALCVMTVWKQYLSPDYKKLQQLMAHPFILDGRNVYDPVYIKQQGFAYEGIGRL	failed
